Values of other authors, collected in PMC7550760.

Molecular target: His84 (UniProt position 104, ACRVNHVTLSQ)
Details: monomeric native-like protein implied; not stated

## beta2-microglobulin deltaN6 variant (Homo sapiens; del1-6)
  pKa: 5.9

## beta2-microglobulin (wild type, full length) (Homo sapiens)
  pKa: 4.1
